Data reported in patent US20050182242A1, “Global analysis of protein activities using proteome chips” (priority 2001, published 2005).

B1: CMK1: yeast calcium/calmodulin-dependent serine/threonine protein kinase, GST-HisX6 fusion (protein)
chain: MDDKVSEKESSPKQTEEDSEGKMAHVQPASYVNKKKYVFGKTLGAGTFGVVRQAKNTETGEDVAVKILIKKALKGNKVQLEALYDELDILQRLHHPNIVAFKDWFESKDKFYIITQLAKGGELFDRILKKGKFTEEDAVRILVEILSAVKYMHSQNIVHRDLKPENLLYIDKSDESPLVVADFGIAKRLKSDEELLYKPAGSLGYVAPEVLTQDGHGKPCDIWSIGVITYTLLCGYSAFRAERVQDFLDECTTGEYPVKFHRPYWDSVSNKAKQFILKALNLDPSKRPTAAELLEDPWIICTELKTHNLLPGLKEGLDARQKFRNSVERVRLNMKIQKLRDLYLEQTESDSDFDEGSQANGSVPPLKATDTSQLSKKLSEEEQSKLKSELTSKAFAQLVNTVLAEKEKFLNINRVCSSDSDLPGSDIKSLDEAKEKPEGKDTKTEE
modifications: left off: a dimerising Fc or GST
notes: yeast calcium/calmodulin-dependent serine/threonine protein kinase, GST-HisX6 fusion
B2: MY04: yeast class V myosin heavy chain, GST-HisX6 fusion (protein, UniProt P32492 1-1471, looked up)
Myosin-4: MSFEVGTKCWYPHKEQGWIGGEVTKNDFFEGTFHLELKLEDGETVSIETNSFENDDDHPTLPVLRNPPILESTDDLTTLSYLNEPAVLHAIKKRYMNGQIYTYSGIVLIAANPFDKVDHLYSREMIQNYSSKRKDELEPHLFAIAEEAYRFMVHEKANQTVVVSGESGAGKTVSAKYIMRYFASVQESNNREGEVEMSQIESQILATNPIMEAFGNAKTTRNDNSSRFGKYLQILFDENTTIRGSKIRTYLLEKSRLVYQPETERNYHIFYQILEGLPEPVKQELHLSSPKDYHYTNQGGQPNIAGIDEAREYKITTDALSLVGINHETQLGIFKILAGLLHIGNIEMKMTRNDASLSSEEQNLQIACELLGIDPFNFAKWIVKKQIVTRSEKIVTNLNYNQALIARDSVAKFIYSTLFDWLVDNINKTLYDPELDQQDHVFSFIGILDIYGFEHFEKNSFEQFCINYANEKLQQEFNQHVFKLEQEEYVKEEIEWSFIEFSDNQPCIDLIENKLGILSLLDEESRLPSGSDESWASKLYSAFNKPPSNEVFSKPRFGQTKFIVSHYAVDVEYEVEGFIEKNRDSVSLGHLDVFKATTNPIFKQILDNRELRSDDAPEEQNTEKKIMIPARLSQKKPTLGSMFKKSLGELMAIINSTNVHYIRCIKPNSEKKPWEFDNLMVLSQLRACGVLETIRISCAGFPSRWTFDEFVQRYFLLTDYSLWSGILYNPDLPKEAIVNFCQSILDATISDSAKYQIGNTKIFFKAGMLAFLEKLRTNKMNEICIIIQKKIRARYYRLQYLQTMESIKKCQSQIRSLLVRTRVDHELKTRAAILLQTNIRALWKREYYRAAIGQIIKLQCTCKRKLILDSVNRKFMLMAAVIIQSYIRSYGHKTDYRTLKRSSILVQSAMRMQLARRRYIVLQKEVEERNIRASYGIGLLEEAIEFKNSFILNLEMLNDSYTRLTQLLQGDLSNIPSKQRQEYETIVNGYNDKISKLKTLQVEIMNTLNKKNALKERKKKQSSLIQSHMQSLAAIKGNKPSRLSDEVKSMKQELAFIENVIAQDFTTTYSANKNDKVKGLGIAGQQVKPKLVNVIRRESGNPDLLELLMDLNCYTLEVTEGYLKKVNVTEVNGDNVLGPIHVITTVVSSLVRNGLLIQSSKFISKVLLTVESIVMSLPKDETMLGGIFWLSNLSRLPAFAANQKTLYEANGGDEKDKLTLIYLNDLENETLKVFDKIYSTWLVKFMKHASAHIEIFDMVLNEKLFKNSGDEKFAKLFTFLNEFDAVLCKFQVVDSMHTKIFNDTLKYLNVMLFNDLITKCPALNWKYGYEVDRNIERLVSWFEPRIEDVRPNLIQIIQAVKILQLKISNLNEFKLLFDFWYALNPAQIQAILLKYKPANKGEAGVPNEILNYLANVIKRENLSLPGKMEIMLSAQFDSAKNHLRYDTSAITQNSNTEGLATVSKIIKLDRK
modifications: GST-HisX6 tag
notes: yeast class V myosin heavy chain, GST-HisX6 fusion

Target: T1, calmodulin (Homo sapiens, UniProt P0DP23)
T1 construct: purchased CalBiochem, USA
Test: Yeast proteome chip probed with biotinylated calmodulin
Assay type: binding
Settings: biotinylated calmodulin in the presence of calcium
Text: To test for protein-protein interactions, the yeast proteome was probed with calmodulin (11). Calmodulin is a highly conserved calcium-binding protein involved in many calcium-regulated cellular processes and has many known physical partners (Hook et al., 2001, Annu. Rev. Pharmacol. Toxicol. 41:471). The calmodulin probe was biotinylated, and bound probe was detected using Cy3-labeled streptavidin. As a control, the yeast proteome was probed with Cy3-labeled streptavidin alone.
Generally, protein-protein interactions can be assayed as follows. Blocked proteome chips are washed three to five times in PBS buffer, and the extra liquid on the glass surface is removed by tapping the slides vertically on a KIMWIPE™. 200 ∞l of biotinylated protein probe is added to the proteome chip and immediately covered by a hydrophobic plastic cover slip (GRACE BIO-LABS™, USA). After trapped air bubbles are removed, the chip is incubated in a humidity chamber at room temperature (RT) for one hour. To remove the cover slip, the chip is immersed into large volume of PBS buffer (>50 ml), and the slip should float away. The chip is then moved to a second PBS bath (>50 ml) and washed 3×5 min with shaking at RT. After removing extra liquid on the surface of the chip, at least 150 μl of Cy3- or Cy5-conjugated streptavidin (PIERCE™, USA; 1:2000 to 1:4000 dilution) is added to the surface and covered by a hydrophobic plastic cover slip (GRACE BIO-LABS™, USA). The chip is incubated for greater than 30 min in the dark at RT. The chip is then washed as described above. To completely remove the liquid on the chip, the chip is spun to dryness at 1500-2000 rpm for 5-10 min at RT.
• 1. S. Fields, Y. Kohara, D. J. Lockhart, Proc. Natl. Acad. Sci. 96, 8825 (1999); A. Goffeau et al., Science 274, 563 (1996). • 2 P. Ross-Macdonald et al., Nature 402, 413 (1999); J. L., DeRisi, V. R. Iyer, P. O. Brown, Science 278, 680 (1997); E. A. Winzeler et al., Science 285, 901 (1999). P. Uetz et al., Nature 403, 623 (2000); T. Ito et al., Proc. Natl. Acad. Sci. USA. 97, 1143 (2000) • 3 H. Zhu, M. Snyder, Curr. Opin. Chem. Biol. 5, 40 (2001). • 4 M. R. Martzen et al., Science 286, 1153 (1999). • 5 H. Zhu et al., Nat. Genet. 26, 283 (2000). • 6 G. MacBeath, S. L. Schreiber, Science 289, 1760 (2000). • 7 A. Caveman, J. Cell Sci. 113, 3543 (2000). • 8 P. Arenkov et al., Anal. Biochem 278, 123 (2000). • 9 D. A. Mitchell, T. K. Marshall, R. J. Deschenes, Yeast 9, 715 (1993). The expression vector pEGH was created by inserting an RGS-HisX6 epitope tag between the GST gene and the polycloning site of pEG(KG). The yeast ORFs were cloned using the strategy described previously (5), except every step was done in a 96-well format. Plasmid DNAs confirmed by DNA sequencing were reintroduced into both yeast (Y258) and E. coli (DH5a). […] 0.1 mM calcium was present in buffers in all subsequent steps. The chip was washed three times with PBS at RT. Cy3-conjugated streptavidin (Jackson IR, USA) (1:5000 dilution) was added to the chip and incubated for 30 min at RT. After extensive washing, the chip was spun dry and scanned using a microarray scanner; the data was subsequently acquired with the GENEPIX™ array densitometry software (Axon, USA). • 12 S. S. Hook, A. R. Means, Annu. Rev. […]

Molecule	calmodulin binding
B1	identified
B2	identified
